Molecular target: rabbit skeletal muscle actin, filamentous (F-actin) (rabbit (Oryctolagus cuniculus), UniProt P68135 1-377)
Assay: co-sedimentation; 3 µM ABD with F-actin from 0 to 140 µM in F-buffer (10 mM Tris pH 7.5, 150 mM NaCl, 0.5 mM ATP, 2 mM MgCl2, 1 mM DTT), 30 min at 23–24 °C, pelleted at 100,000 x g; unbound ABD in the supernatant quantified on Coomassie gels; fit to Y=X/(Kd+X)
Conditions: both partners purified

Kd: 75 µM
B1: WT β-III-spectrin ABD (amino acids 1–284), pE-SUMO construct (domain or fragment)
chain: MSSTLSPTDFDSLEIQGQYSDINNRWDLPDSDWDNDSSSARLFERSRIKALADEREAVQKKTFTKWVNSHLARVTCRVGDLYSDLRDGRNLLRLLEVLSGEILPKPTKGRMRIHCLENVDKALQFLKEQKVHLENMGSHDIVDGNHRLTLGLVWTIILRFQIQDISVETEDNKEKKSAKDALLLWCQMKTAGYPNVNVHNFTTSWRDGLAFNAIVHKHRPDLLDFESLKKCNAHYNLQNAFNLAEKELGLTKLLDPEDVNVDQPDEKSIITYVATYYHYFSKMK
notes: also called WT ABD; pE-SUMO-ABD WT; source: E. coli BL21(DE3)pLysS, purified (Ni-NTA, Ulp1 cleavage, second Ni-NTA, Sephadex S100 gel filtration)

Source: publication PMC5676748, “Structural basis for high-affinity actin binding revealed by a β-III-spectrin SCA5 missense mutation” (Nature Communications, 2017)
